The record followed here is patent publication US6897197 (ALBERT EINSTEIN COLLEGE OF MEDICINE OF YESHIVA UNIVERSITY, dated 2005).

The target in test [1] is T1, human MDM2, full length (CMV driven expression construct pCHDM1A) (human, UniProt Q00987 1-491).
T1 construct: Expressed in transfected cells; also called HDM-2
Description: low stringency co-immunoprecipitation (anti-FLAG IP, anti-MDM2 Western blot), 293T cells transfected with MDM2 and p19FLAG. The procedure: (§1) For immunoprecipitations, subconfluent 293T cells were transfected with 3 µg each of the appropriate expression constructs shown in FIG. 3, and 80 µg of Lipofectamine reagent (Gibco BRL). […] Untransfected 3T3-DM cells were lysed in a low stringency buffer as above.

Test [2] concerns the target T2, endogenous MDM2 of untransfected 3T3DM cells (UniProt P23804 1-489).
T2 construct: 3T3DM is a mouse cell line; Detected with antibody 2A10; also called p90/p85
Description: anti-p19^ARF immunoprecipitation, anti-MDM2 Western blot, untransfected 3T3DM cells. The procedure:
as §1
A general note: In western blotting, separated proteins are transferred to a membrane and probed.

T2 sequence (P23804 whole entry): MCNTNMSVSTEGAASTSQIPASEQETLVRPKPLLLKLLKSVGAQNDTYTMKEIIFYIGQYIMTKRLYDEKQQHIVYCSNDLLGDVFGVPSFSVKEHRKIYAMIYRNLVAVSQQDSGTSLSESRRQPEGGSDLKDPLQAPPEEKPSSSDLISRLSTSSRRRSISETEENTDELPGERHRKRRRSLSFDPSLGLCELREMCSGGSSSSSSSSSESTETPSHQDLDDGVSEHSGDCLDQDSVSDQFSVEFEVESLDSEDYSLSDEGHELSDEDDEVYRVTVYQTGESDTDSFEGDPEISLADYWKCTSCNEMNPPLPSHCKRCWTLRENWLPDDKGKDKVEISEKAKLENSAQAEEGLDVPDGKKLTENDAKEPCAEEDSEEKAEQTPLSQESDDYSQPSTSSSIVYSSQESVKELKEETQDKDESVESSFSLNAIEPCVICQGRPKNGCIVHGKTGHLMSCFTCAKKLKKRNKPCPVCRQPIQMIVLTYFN
T1 sequence (Q00987 whole entry): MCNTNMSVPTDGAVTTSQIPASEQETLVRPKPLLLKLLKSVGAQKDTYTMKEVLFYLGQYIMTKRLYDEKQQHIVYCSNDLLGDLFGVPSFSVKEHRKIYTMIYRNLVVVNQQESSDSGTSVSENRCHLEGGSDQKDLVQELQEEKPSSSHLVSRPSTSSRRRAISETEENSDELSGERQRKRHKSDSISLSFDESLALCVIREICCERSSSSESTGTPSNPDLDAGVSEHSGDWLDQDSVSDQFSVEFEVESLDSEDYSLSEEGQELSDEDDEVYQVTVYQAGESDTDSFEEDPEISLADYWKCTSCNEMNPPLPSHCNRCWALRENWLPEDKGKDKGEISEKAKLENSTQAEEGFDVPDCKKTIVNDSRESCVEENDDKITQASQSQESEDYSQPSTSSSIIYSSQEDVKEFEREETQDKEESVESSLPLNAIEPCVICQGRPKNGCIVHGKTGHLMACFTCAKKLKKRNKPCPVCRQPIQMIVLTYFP

B1: FLAG epitope-tagged p19^ARF protein (other, mouse, UniProt Q64364 1-169, looked up, not shown: small tags and cut ends)
chain: MGRRFLVTVRIQRAGRPLQERVFLVKFVRSRRPRTASCALAFVNMLLRLERILRRGPHRNPGPGDDDGQRSRSSSSAQLRCRFELRGPHYLLPPGARRSAGRLPGHAGGAARVRGSAGCARCLGSPAARLGPRAGTSRHRAIFAFRWVLFVFRWVVFVYRWERRPDRRA
notes: Expressed from pcDNA in transfected 293T, SAOS2 or HeLa cells; also called p19^FLAG; p19FLAG
For the molecule B1, the binding result in test [1] was “binds”.

B2: endogenous p19^ARF of untransfected 3T3DM cells (other, UniProt Q64364 1-169, looked up)
chain: MGRRFLVTVRIQRAGRPLQERVFLVKFVRSRRPRTASCALAFVNMLLRLERILRRGPHRNPGPGDDDGQRSRSSSSAQLRCRFELRGPHYLLPPGARRSAGRLPGHAGGAARVRGSAGCARCLGSPAARLGPRAGTSRHRAIFAFRWVLFVFRWVVFVYRWERRPDRRA
notes: Immunoprecipitated with rabbit polyclonal anti-p19^ARF antiserum
Regarding B2, the binding result in test [2] is “binds”.
